Measurements taken from patent US20130344089A1.

Legend:
[1] = biological target: Aβ42 A21C/A30C (Aβ42-CC) monomers (UniProt P05067); assay: direct ELISA, Aβ42-CC monomers coated at pH 7.4
[2] = biological target: Aβ42 A21C/A30C (Aβ42-CC) monomers (UniProt P05067); assay: direct ELISA, Aβ42-CC monomers coated at pH 10.4
[3] = biological target: Aβ42 A21C/A30C (Aβ42-CC) monomers (UniProt P05067); assay: direct ELISA, Aβ42-CC monomers coated at pH 10.4 with 10 mM TCEP (reduced form)

total Ig titer (log10) [1]: 2.1 log10 titer
total Ig titer (log10) [2]: 2 log10 titer
total Ig titer (log10) [3]: 2.1 log10 titer
Substance: monoclonal antibody 6E10 (Covance Research Products)
